Test results from PMC5871780, “Klf4 glutamylation is required for cell reprogramming and early embryonic development in mice”.

How the values were obtained:
[1] = molecular target: GST-Klf4-wt (Mus musculus, UniProt Q60793 1-483); test: EMSA; unlabeled probe (1x or 100x) competes; LightShift Chemiluminescent EMSA Kit (Thermo Scientific), per manufacturer; buffer, salt, pH and temperature not stated; details: protein: recombinant; tags: GST (N-term, pGEX-6P-1); blunt
[2] = molecular target: GST-Klf4-E381A (Mus musculus, UniProt Q60793 1-483, E381A); test: EMSA; affinity comparable to wt; LightShift Chemiluminescent EMSA Kit (Thermo Scientific), per manufacturer; buffer, salt, pH and temperature not stated; details: protein: recombinant; tags: GST (N-term, pGEX-6P-1); blunt
Sequence of GST-Klf4-E381A (Q60793 whole entry E381A): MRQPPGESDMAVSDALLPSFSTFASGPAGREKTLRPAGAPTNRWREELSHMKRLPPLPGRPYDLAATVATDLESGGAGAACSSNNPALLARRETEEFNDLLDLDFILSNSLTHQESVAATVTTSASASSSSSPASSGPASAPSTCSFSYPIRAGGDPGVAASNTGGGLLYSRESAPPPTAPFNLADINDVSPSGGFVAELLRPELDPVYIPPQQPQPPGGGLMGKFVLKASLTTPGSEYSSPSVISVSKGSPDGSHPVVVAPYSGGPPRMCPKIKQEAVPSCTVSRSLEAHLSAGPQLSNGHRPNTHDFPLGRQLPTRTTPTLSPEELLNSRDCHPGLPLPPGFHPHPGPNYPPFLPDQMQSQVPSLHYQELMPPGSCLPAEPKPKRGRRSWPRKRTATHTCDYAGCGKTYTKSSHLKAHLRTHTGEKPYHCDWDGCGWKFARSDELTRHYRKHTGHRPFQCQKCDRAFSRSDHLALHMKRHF

Sequence of GST-Klf4-wt (Q60793 whole entry): as the sequence (Q60793 whole entry E381A) above, with A381E counted along it

B1: Nanog promoter probe (dsDNA)
DNA 1: GCCGCCTGGGTGCCTGGGAGAATAGGGGGTGGGTAGGGTAGGAGGCTTG
DNA 2: CAAGCCTCCTACCCTACCCACCCCCTATTCTCCCAGGCACCCAGGCGGC
- binding result [1]: binds
- binding result [2]: binds
